Drawing on PMC3510444 (Molecular Cell, 2012), this text covers Kd for 2 molecules.

Where no end group is shown, it is not given here.

The target in the test is T1, LC3A, purified, for fluorescence anisotropy (human, UniProt Q9H492 1-121).
T1 construct: LC3A, human ATG8 ortholog; Construct limits and whether the tag was removed may stand in the Supplemental Experimental Procedures; source: E. coli (pETM30 vectors for biochemical experiments), purified
The test can be described thus: fluorescence polarisation; fluorescence anisotropy, equilibrium; purified ATG8 orthologs serially diluted and mixed with equal volumes of 100 nM FITC-labeled NDP52 peptides; PheraStar plate reader. The following applies: both partners purified. On the technique in general: Polarisation of emitted light reports the rotation of a fluorescent probe.

B1: FITC-labeled NDP52 CLIR peptide (aa 128-141), I133W (peptide)
peptide: ENEEDWLVVTTQGE
modifications: also: FITC label (end not given here)
notes: NDP52, human, CLIR region, 14-mer, Ile133 replaced with Trp; also called CLIR^I133W
For orientation: Kd means the concentration at which binding is half-saturated. A high value points to weaker binding. In turn, B1 displayed an equilibrium dissociation constant (Kd) of 0.29 µM. In other words, the sub-micromolar range.

B2: FITC-labeled NDP52 CLIR peptide (aa 128-141), wild type (peptide)
peptide: ENEEDILVVTTQGE
modifications: also: FITC label (end not given here)
notes: NDP52, human, CLIR region, 14-mer; also called CLIR^WT
With B2, binding was characterised by a dissociation constant (Kd) of 15.1 µM.
